Assay results taken from paper PMC9482650, “Quantitative fragmentomics allow affinity mapping of interactomes” (Nature Communications, 2022).

Columns and labels:
Experiment in all cases: holdup assay
Design in all cases: key: below the threshold = too weak to quantify, mostly under pKd 3.1 to 4
Conditions in all cases: plain residues with an end cap or a label only (N-terminal biotin on a linker: ado-ado)
APBA3_1, O96018 = target: T1, APBA3_1, O96018
T1 sequence (O96018 389-490, limits assumed, looked up): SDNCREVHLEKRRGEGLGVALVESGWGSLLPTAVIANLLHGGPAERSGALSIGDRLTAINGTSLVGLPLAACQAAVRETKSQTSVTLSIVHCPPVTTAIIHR

CASK, O14936 = target: CASK, O14936
DFNB31_1, Q9P202 = target: T2, DFNB31_1, Q9P202
T2 sequence (Q9P202 135-233, limits assumed, looked up): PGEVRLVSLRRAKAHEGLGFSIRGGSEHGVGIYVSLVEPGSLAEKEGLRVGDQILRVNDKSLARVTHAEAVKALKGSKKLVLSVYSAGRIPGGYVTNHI

DFNB31_3, Q9P202 = target: T3, DFNB31_3, Q9P202
T3 sequence (Q9P202 811-907, limits assumed, looked up): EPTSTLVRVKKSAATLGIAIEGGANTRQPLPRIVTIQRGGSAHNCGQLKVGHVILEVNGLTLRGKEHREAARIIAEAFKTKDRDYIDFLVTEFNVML

DLG3_3, Q92796 = target: T4, DLG3_3, Q92796
T4 sequence (Q92796 374-475, limits assumed, looked up): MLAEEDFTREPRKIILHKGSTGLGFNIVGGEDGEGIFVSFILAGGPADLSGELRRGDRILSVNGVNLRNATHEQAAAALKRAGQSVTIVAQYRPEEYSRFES

DLG4_1, P78352 = target: DLG4_1, P78352
DLG4_2, P78352 = target: DLG4_2, P78352
FRMPD3, Q5JV73 = target: FRMPD3, Q5JV73
GRIP2_3, Q9C0E4 = target: GRIP2_3, Q9C0E4
GRIP2_4, Q9C0E4 = target: GRIP2_4, Q9C0E4
GRIP2_5, Q9C0E4 = target: GRIP2_5, Q9C0E4
GRIP2_6, Q9C0E4 = target: GRIP2_6, Q9C0E4
IL16_3, Q14005 = target: IL16_3, Q14005
Inadl_1, Q8NI35 = target: Inadl_1, Q8NI35
Inadl_8, Q8NI35 = target: Inadl_8, Q8NI35
LDB3, O75112 = target: LDB3, O75112
LIMK2, P53671 = target: LIMK2, P53671
LNX2_2, Q8N448 = target: T5, LNX2_2, Q8N448
T5 sequence (Q8N448 334-432, limits assumed, looked up): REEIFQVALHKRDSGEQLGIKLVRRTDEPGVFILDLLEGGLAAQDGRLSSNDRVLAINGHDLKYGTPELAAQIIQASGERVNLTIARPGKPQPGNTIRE

MAGI2_4, Q86UL8 = target: MAGI2_4, Q86UL8
MAGI2_6, Q86UL8 = target: MAGI2_6, Q86UL8
MAGI3_2, Q5TCQ9 = target: MAGI3_2, Q5TCQ9
MPDZ_12, O75970 = target: T6, MPDZ_12, O75970
T6 sequence (O75970 1857-1958, limits assumed, looked up): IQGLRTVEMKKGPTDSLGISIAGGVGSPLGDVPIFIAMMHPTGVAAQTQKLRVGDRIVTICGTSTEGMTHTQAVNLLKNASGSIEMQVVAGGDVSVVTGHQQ

MPP2, Q14168 = target: T7, MPP2, Q14168
T7 sequence (Q14168 180-250, limits assumed, looked up): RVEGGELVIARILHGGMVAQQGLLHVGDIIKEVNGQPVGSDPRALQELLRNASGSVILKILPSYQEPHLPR

MPP6, Q9NZW5 = target: T8, MPP6, Q9NZW5
T8 sequence (Q9NZW5 125-219, limits assumed, looked up): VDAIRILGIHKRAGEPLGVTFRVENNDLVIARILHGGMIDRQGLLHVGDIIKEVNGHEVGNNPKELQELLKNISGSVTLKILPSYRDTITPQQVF

PDZD7_3, Q9H5P4 = target: T9, PDZD7_3, Q9H5P4
T9 sequence (Q9H5P4 857-944, limits assumed, looked up): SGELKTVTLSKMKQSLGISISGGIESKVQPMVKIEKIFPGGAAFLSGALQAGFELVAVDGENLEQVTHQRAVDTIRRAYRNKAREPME

PTPN3, P26045 = target: PTPN3, P26045
SCRIB_3, Q14160 = target: SCRIB_3, Q14160
SHANK1, Q9Y566 = target: T10, SHANK1, Q9Y566
T10 sequence (Q9Y566 658-767, limits assumed, looked up): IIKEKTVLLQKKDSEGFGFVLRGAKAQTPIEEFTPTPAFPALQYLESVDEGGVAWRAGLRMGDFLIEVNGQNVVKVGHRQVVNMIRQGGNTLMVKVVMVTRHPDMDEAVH

TJP1_3, Q07157 = target: TJP1_3, Q07157
Chain of TJP1_3, Q07157 (Q07157 416-512): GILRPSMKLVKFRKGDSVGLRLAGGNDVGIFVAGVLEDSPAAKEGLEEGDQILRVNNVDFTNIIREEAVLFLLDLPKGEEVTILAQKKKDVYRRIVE

Chain of DLG4_2, P78352 (P78352 155-259): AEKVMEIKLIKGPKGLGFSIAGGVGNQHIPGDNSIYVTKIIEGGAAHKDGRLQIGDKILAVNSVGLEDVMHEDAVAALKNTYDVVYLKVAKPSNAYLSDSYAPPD
Chain of LDB3, O75112 (O75112 1-94): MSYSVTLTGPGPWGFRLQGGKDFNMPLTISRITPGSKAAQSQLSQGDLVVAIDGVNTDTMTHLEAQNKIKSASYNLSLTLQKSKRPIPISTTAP
Chain of DLG4_1, P78352 (P78352 62-152): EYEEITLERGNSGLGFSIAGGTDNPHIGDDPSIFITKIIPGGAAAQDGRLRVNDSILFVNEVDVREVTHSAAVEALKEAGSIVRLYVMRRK
Chain of CASK, O14936 (O14936 487-570): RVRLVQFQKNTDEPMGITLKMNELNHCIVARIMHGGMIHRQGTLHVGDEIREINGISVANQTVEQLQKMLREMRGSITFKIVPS
Chain of MAGI2_6, Q86UL8 (Q86UL8 1141-1229): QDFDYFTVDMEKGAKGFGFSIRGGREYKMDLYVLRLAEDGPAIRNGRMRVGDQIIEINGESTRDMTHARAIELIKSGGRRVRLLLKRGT
Chain of IL16_3, Q14005 (Q14005 1107-1207): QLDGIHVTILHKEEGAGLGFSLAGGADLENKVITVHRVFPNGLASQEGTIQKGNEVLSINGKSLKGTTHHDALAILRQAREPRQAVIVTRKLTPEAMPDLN
Chain of GRIP2_3, Q9C0E4 (Q9C0E4 238-339): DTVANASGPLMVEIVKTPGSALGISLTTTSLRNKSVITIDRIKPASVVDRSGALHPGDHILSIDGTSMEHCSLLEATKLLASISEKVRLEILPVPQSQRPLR
Chain of PTPN3, P26045 (P26045 505-587): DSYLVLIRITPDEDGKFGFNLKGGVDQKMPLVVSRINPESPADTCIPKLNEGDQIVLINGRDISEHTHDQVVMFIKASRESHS
Chain of MAGI3_2, Q5TCQ9 (Q5TCQ9 398-503): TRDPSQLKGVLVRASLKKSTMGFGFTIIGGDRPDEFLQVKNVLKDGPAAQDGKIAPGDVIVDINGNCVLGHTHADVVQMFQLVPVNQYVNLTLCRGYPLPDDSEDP
Chain of SCRIB_3, Q14160 (Q14160 999-1103): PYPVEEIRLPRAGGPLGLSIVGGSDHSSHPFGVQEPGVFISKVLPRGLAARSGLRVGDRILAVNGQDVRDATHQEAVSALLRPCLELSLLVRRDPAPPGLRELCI
Chain of Inadl_1, Q8NI35 (Q8NI35 113-229): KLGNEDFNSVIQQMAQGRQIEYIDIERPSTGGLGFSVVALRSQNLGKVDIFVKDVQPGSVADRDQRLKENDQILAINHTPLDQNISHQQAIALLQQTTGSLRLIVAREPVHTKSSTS
Chain of FRMPD3, Q5JV73 (Q5JV73 12-100): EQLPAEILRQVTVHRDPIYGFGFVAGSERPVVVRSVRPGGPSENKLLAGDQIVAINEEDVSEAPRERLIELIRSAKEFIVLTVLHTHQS
Chain of GRIP2_4, Q9C0E4 (Q9C0E4 446-548): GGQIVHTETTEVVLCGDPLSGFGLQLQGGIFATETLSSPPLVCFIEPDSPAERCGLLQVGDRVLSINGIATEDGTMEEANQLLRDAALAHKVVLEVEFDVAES
Chain of LIMK2, P53671 (P53671 143-248): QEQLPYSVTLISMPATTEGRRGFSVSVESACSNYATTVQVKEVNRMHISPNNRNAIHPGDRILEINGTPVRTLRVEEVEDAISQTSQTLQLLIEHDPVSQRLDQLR
Chain of Inadl_8, Q8NI35 (Q8NI35 1425-1530): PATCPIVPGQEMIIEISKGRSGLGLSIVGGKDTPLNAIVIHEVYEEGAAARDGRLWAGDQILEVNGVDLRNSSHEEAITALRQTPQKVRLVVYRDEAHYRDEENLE
Chain of MAGI2_4, Q86UL8 (Q86UL8 772-865): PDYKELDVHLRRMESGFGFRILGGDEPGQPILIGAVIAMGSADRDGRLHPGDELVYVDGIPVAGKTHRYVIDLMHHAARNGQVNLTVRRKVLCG
Chain of GRIP2_6, Q9C0E4 (Q9C0E4 648-740): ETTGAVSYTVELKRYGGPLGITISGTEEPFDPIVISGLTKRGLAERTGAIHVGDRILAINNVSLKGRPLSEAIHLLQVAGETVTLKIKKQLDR
Chain of GRIP2_5, Q9C0E4 (Q9C0E4 544-642): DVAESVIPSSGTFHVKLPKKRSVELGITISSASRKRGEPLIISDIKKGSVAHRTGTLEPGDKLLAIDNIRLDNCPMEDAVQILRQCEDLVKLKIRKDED

| Binder | pKd (APBA3_1, O96018) | pKd (CASK, O14936) | pKd (DFNB31_1, Q9P202) | pKd (DFNB31_3, Q9P202) | pKd (DLG3_3, Q92796) | pKd (DLG4_1, P78352) | pKd (DLG4_2, P78352) | pKd (FRMPD3, Q5JV73) | pKd (GRIP2_3, Q9C0E4) | pKd (GRIP2_4, Q9C0E4) | pKd (GRIP2_5, Q9C0E4) | pKd (GRIP2_6, Q9C0E4) | pKd (IL16_3, Q14005) | pKd (Inadl_1, Q8NI35) | pKd (Inadl_8, Q8NI35) | pKd (LDB3, O75112) | pKd (LIMK2, P53671) | pKd (LNX2_2, Q8N448) | pKd (MAGI2_4, Q86UL8) | pKd (MAGI2_6, Q86UL8) | further results |
| --- | --- | --- | --- | --- | --- | --- | --- | --- | --- | --- | --- | --- | --- | --- | --- | --- | --- | --- | --- | --- | --- |
| FLVTEFNVML [DFNB31, Q9P202] | below the threshold | below the threshold | below the threshold | below the threshold | below the threshold | below the threshold | below the threshold | 3.97 | below the threshold | below the threshold | below the threshold | 4.06 | below the threshold | below the threshold | below the threshold | 3.88 | below the threshold | below the threshold | below the threshold | 4.78 | pKd (MAGI3_2, Q5TCQ9): 3.66; pKd (MPDZ_12, O75970): below the threshold; pKd (MPP2, Q14168): below the threshold; pKd (MPP6, Q9NZW5): below the threshold; pKd (PDZD7_3, Q9H5P4): 4.47; pKd (PTPN3, P26045): 3.89; pKd (SCRIB_3, Q14160): 4.12; pKd (SHANK1, Q9Y566): 3.84; pKd (TJP1_3, Q07157): below the threshold |
| EAVTVESTSL [SLC22A11, Q9NSA0] | below the threshold | below the threshold | 3.98 | below the threshold | 3.6 | 3.65 | 3.58 | below the threshold | below the threshold | below the threshold | below the threshold | below the threshold | below the threshold | below the threshold | below the threshold | below the threshold | below the threshold | 3.67 | below the threshold | 4.2 | pKd (MAGI3_2, Q5TCQ9): below the threshold; pKd (MPDZ_12, O75970): below the threshold; pKd (MPP2, Q14168): below the threshold; pKd (MPP6, Q9NZW5): 3.95; pKd (PDZD7_3, Q9H5P4): 4.8; pKd (PTPN3, P26045): 4.62; pKd (SCRIB_3, Q14160): 4.75; pKd (SHANK1, Q9Y566): 5.68; pKd (TJP1_3, Q07157): below the threshold |
| AHGSTRDQSI [KCNB1, Q14721] | below the threshold | below the threshold | below the threshold | 3.77 | 3.75 | below the threshold | 4.09 | below the threshold | below the threshold | 3.68 | below the threshold | below the threshold | below the threshold | below the threshold | below the threshold | below the threshold | below the threshold | below the threshold | 3.9 | below the threshold | pKd (MAGI3_2, Q5TCQ9): below the threshold; pKd (MPDZ_12, O75970): 3.62; pKd (MPP2, Q14168): below the threshold; pKd (MPP6, Q9NZW5): below the threshold; pKd (PDZD7_3, Q9H5P4): 3.67; pKd (PTPN3, P26045): 4.07; pKd (SCRIB_3, Q14160): below the threshold; pKd (SHANK1, Q9Y566): 3.78; pKd (TJP1_3, Q07157): 3.48 |
| PEKVSNTTVV [IGSF5, Q9NSI5] | below the threshold | below the threshold | below the threshold | 3.83 | below the threshold | 4.15 | 4.49 | below the threshold | below the threshold | below the threshold | below the threshold | below the threshold | below the threshold | below the threshold | below the threshold | below the threshold | below the threshold | 5.14 | 3.7 | below the threshold | pKd (MAGI3_2, Q5TCQ9): 4.44; pKd (MPDZ_12, O75970): below the threshold; pKd (MPP2, Q14168): below the threshold; pKd (MPP6, Q9NZW5): below the threshold; pKd (PDZD7_3, Q9H5P4): 4.66; pKd (PTPN3, P26045): below the threshold; pKd (SCRIB_3, Q14160): below the threshold; pKd (SHANK1, Q9Y566): below the threshold; pKd (TJP1_3, Q07157): below the threshold |
